{"source": "patent US20230408517A1", "about": "(BIO TECHNE, published 2023)", "binders": {"B1": {"name": "1035753 (antibody, V domains shown)", "VH": "EVQLQQSGAELVRPGALVKLSCKASGFNIKDYYMHWVKQRPEQGLEWIGWIDPENGNTIYDPKFLGKASITADTSSNTAYLQLSSLTSEDTAVYYCARWYYYAMDSWGQGTSVTVSS", "VL": "DIQMTQTTSSLSASLGDRVTISCSASQGISNYLNWYQQKPDGTVKLLIYYTSSLHSGVPSRFSGSGSGTDYSLTISNLEPEDIATYYCQQYSKLPFTFGGGTNLEMK"}, "B2": {"name": "1035419 (antibody, V domains shown)", "VH": "QVQLKQSGAELVRPGASVKLSCKTSGYIFTSYWIHWIKQRSGQGLEWIARIYPGTGSTYNNEKFKGKATLTADKSSSTAYMQLSSLKSEDSAVYFCARGEDNLYFYAMDYWGQGTSVTVSS", "VL": "NIVLTQSPASLAVSLGQRATISCRASESVDSYGASFMHWCQQKPGQPPKLLIYLASNLESGVPARFSGSGSRTDFTLTIDPVEADDAATYYCQQNYEDPWTFGGGTKLEIK"}}, "key": {"[1]": {"target": "T1, recombinant SARS-CoV-2 spike S1 RBD (R319-F541), C-terminal 6-His (SARS-CoV-2, UniProt P0DTC2 319-541)", "experiment": "sandwich dipstick, detector Ab4-AuNP"}, "[2]": {"target": "T2, UK variant RBD (R319-F541 with N501Y), C-terminal 6-His (SARS-CoV-2, UniProt P0DTC2 319-541)", "experiment": "sandwich dipstick, detector Ab4-AuNP"}, "[3]": {"target": "T3, SA variant RBD (R319-F541 with K417N, E484K, N501Y), C-terminal 6-His (SARS-CoV-2, UniProt P0DTC2 319-541)", "experiment": "sandwich dipstick, detector Ab4-AuNP"}, "[4]": {"target": "T4, BR P.1 variant RBD (R319-F541 with K417T, E484K, N501Y), C-terminal 6-His (SARS-CoV-2, UniProt P0DTC2 319-541)", "experiment": "sandwich dipstick, detector Ab4-AuNP"}, "[5]": {"target": "T1, recombinant SARS-CoV-2 spike S1 RBD …", "experiment": "sandwich dipstick, detector Ab5-AuNP"}, "[6]": {"target": "T2, UK variant RBD (R319-F541 with N501Y), …", "experiment": "sandwich dipstick, detector Ab5-AuNP"}, "[7]": {"target": "T3, SA variant RBD (R319-F541 with K417N, …)", "experiment": "sandwich dipstick, detector Ab5-AuNP"}, "[8]": {"target": "T4, BR P.1 variant RBD (R319-F541 with …)", "experiment": "sandwich dipstick, detector Ab5-AuNP"}, "[9]": {"target": "T1, recombinant SARS-CoV-2 spike S1 RBD …", "experiment": "lateral flow NC50, RBD-AuNP vs immobilised ACE2"}, "[10]": {"target": "T2, UK variant RBD (R319-F541 with N501Y), …", "experiment": "lateral flow NC50, RBD-AuNP vs immobilised ACE2"}, "[11]": {"target": "T3, SA variant RBD (R319-F541 with K417N, …)", "experiment": "lateral flow NC50, RBD-AuNP vs immobilised ACE2"}, "[12]": {"target": "T4, BR P.1 variant RBD (R319-F541 with …)", "experiment": "lateral flow NC50, RBD-AuNP vs immobilised ACE2"}, "[13]": {"target": "T1, recombinant SARS-CoV-2 spike S1 RBD …", "experiment": "lateral flow NC50, RBD-AuNP vs immobilised ACE2", "remark": "listed apart in the source"}, "[14]": {"target": "T2, UK variant RBD (R319-F541 with N501Y), …", "experiment": "lateral flow NC50, RBD-AuNP vs immobilised ACE2", "remark": "listed apart in the source"}, "[15]": {"target": "T3, SA variant RBD (R319-F541 with K417N, …)", "experiment": "lateral flow NC50, RBD-AuNP vs immobilised ACE2", "remark": "listed apart in the source"}, "[16]": {"target": "T4, BR P.1 variant RBD (R319-F541 with …)", "experiment": "lateral flow NC50, RBD-AuNP vs immobilised ACE2", "remark": "listed apart in the source"}, "[17]": {"target": "BR P.2 variant RBD (R319-F541 with E484K) (SARS-CoV-2, UniProt P0DTC2 319-541)", "experiment": "lateral flow NC50, RBD-AuNP vs immobilised ACE2"}, "[18]": {"target": "K417E RBD (R319-F541 with K417E) (SARS-CoV-2, UniProt P0DTC2 319-541)", "experiment": "lateral flow NC50, RBD-AuNP vs immobilised ACE2"}, "[19]": {"target": "T478K RBD (R319-F541 with T478K) (SARS-CoV-2, UniProt P0DTC2 319-541)", "experiment": "lateral flow NC50, RBD-AuNP vs immobilised ACE2"}, "[20]": {"target": "T1, recombinant SARS-CoV-2 spike S1 RBD …", "experiment": "flow cytometry, blocking of binding to hACE-2 cells"}, "[21]": {"target": "T1, recombinant SARS-CoV-2 spike S1 RBD …", "experiment": "flow cytometry, blocking of binding to hACE-2 cells", "remark": "listed apart in the source"}, "[22]": {"target": "T4, BR P.1 variant RBD (R319-F541 with …)", "experiment": "flow cytometry, blocking of binding to hACE-2 cells"}, "[23]": {"target": "T5, IN v2 variant RBD (R319-F541 with L452R, T478K) (SARS-CoV-2, UniProt P0DTC2 319-541)", "experiment": "flow cytometry, blocking of binding to hACE-2 cells"}, "[24]": {"target": "rSARS2 RBD aa319-541, N439K, C-His (SARS-CoV-2, UniProt P0DTC2 319-541)", "experiment": "flow cytometry, blocking of binding to hACE-2 cells"}, "[25]": {"target": "rSARS2-B.1.1.7 S aa16-1211 2x aa mut., C-His (SARS-CoV-2, UniProt P0DTC2 16-1211)", "experiment": "flow cytometry, blocking of binding to hACE-2 cells"}, "[26]": {"target": "rSARS2-B.1.1.7 S aa16-1211 4x aa mut., C-His (SARS-CoV-2, UniProt P0DTC2 16-1211)", "experiment": "flow cytometry, blocking of binding to hACE-2 cells"}, "[27]": {"target": "rSARS2-B.1.617.2 S aa16-1211 10+4x aa mut., C-His (SARS-CoV-2, UniProt P0DTC2 16-1211)", "experiment": "flow cytometry, blocking of binding to hACE-2 cells"}, "[28]": {"target": "T6, L452R RBD (R319-F541 with L452R) (SARS-CoV-2, UniProt P0DTC2 319-541)", "experiment": "lateral flow assay: blocking of RBD-AuNP capture by ACE2"}, "[29]": {"target": "T7, IN v1 variant RBD (R319-F541 with L452R, E484Q) (SARS-CoV-2, UniProt P0DTC2 319-541)", "experiment": "lateral flow assay: blocking of RBD-AuNP capture by ACE2"}, "[30]": {"target": "T5, IN v2 variant RBD (R319-F541 with …)", "experiment": "lateral flow assay: blocking of RBD-AuNP capture by ACE2"}, "[31]": {"target": "T6, L452R RBD (R319-F541 with L452R)", "experiment": "lateral flow NC50, RBD-AuNP vs immobilised ACE2"}, "[32]": {"target": "T7, IN v1 variant RBD (R319-F541 with …)", "experiment": "lateral flow NC50, RBD-AuNP vs immobilised ACE2"}, "[33]": {"target": "T5, IN v2 variant RBD (R319-F541 with …)", "experiment": "lateral flow NC50, RBD-AuNP vs immobilised ACE2"}}, "note": "Read-outs that look alike come from different tables or passages of the source.", "data": [{"binder": "B1", "values": [{"measurement": "detection sensitivity", "setting": "[1]", "value": 0.01, "unit": "µg/mL"}, {"measurement": "detection sensitivity", "setting": "[2]", "value": 0.01, "unit": "µg/mL"}, {"measurement": "detection sensitivity", "setting": "[3]", "value": 0.01, "unit": "µg/mL"}, {"measurement": "detection sensitivity", "setting": "[4]", "value": 0.01, "unit": "µg/mL"}, {"measurement": "detection sensitivity", "setting": "[5]", "value": 0.001, "unit": "µg/mL"}, {"measurement": "detection sensitivity", "setting": "[6]", "value": 0.001, "unit": "µg/mL"}, {"measurement": "detection sensitivity", "setting": "[7]", "value": 0.001, "unit": "µg/mL"}, {"measurement": "detection sensitivity", "setting": "[8]", "value": 0.001, "unit": "µg/mL"}, {"measurement": "IC50", "setting": "[9]", "value": 1.66, "unit": "mg/L"}, {"measurement": "IC50", "setting": "[10]", "value": 1.51, "unit": "mg/L"}, {"measurement": "IC50", "setting": "[11]", "value": 3.19, "unit": "mg/L"}, {"measurement": "IC50", "setting": "[12]", "value": 2.21, "unit": "mg/L"}, {"measurement": "IC50", "setting": "[13]", "value": 1.66, "unit": "mg/L"}, {"measurement": "IC50", "setting": "[14]", "value": 1.51, "unit": "mg/L"}, {"measurement": "IC50", "setting": "[15]", "value": 3.19, "unit": "mg/L"}, {"measurement": "IC50", "setting": "[16]", "value": 2.21, "unit": "mg/L"}, {"measurement": "IC50", "setting": "[17]", "value": 3.22, "unit": "mg/L"}, {"measurement": "IC50", "setting": "[18]", "value": 0.89, "unit": "mg/L"}, {"measurement": "IC50", "setting": "[19]", "value": 2.29, "unit": "mg/L"}, {"measurement": "percent blocking", "setting": "[20]", "value": 94.7, "unit": "%"}, {"measurement": "percent blocking", "setting": "[21]", "value": 94.7, "unit": "%"}, {"measurement": "percent blocking", "setting": "[22]", "value": 90.4, "unit": "%"}, {"measurement": "percent blocking", "setting": "[23]", "value": 0, "unit": "%"}, {"measurement": "percent blocking", "setting": "[24]", "value": 96.2, "unit": "%"}, {"measurement": "percent blocking", "setting": "[25]", "value": 93.6, "unit": "%"}, {"measurement": "percent blocking", "setting": "[26]", "value": 81.2, "unit": "%"}, {"measurement": "percent blocking", "setting": "[27]", "value": 0, "unit": "%"}, {"measurement": "binding result", "setting": "[28]", "value": "no binding (tested: 10 µg/mL)"}, {"measurement": "binding result", "setting": "[29]", "value": "no binding (tested: 10 µg/mL)"}, {"measurement": "binding result", "setting": "[30]", "value": "no binding (tested: 10 µg/mL)"}]}, {"binder": "B2", "values": [{"measurement": "detection sensitivity", "setting": "[1]", "value": 0.01, "unit": "µg/mL"}, {"measurement": "detection sensitivity", "setting": "[2]", "value": 0.01, "unit": "µg/mL"}, {"measurement": "detection sensitivity", "setting": "[3]", "value": 0.01, "unit": "µg/mL"}, {"measurement": "detection sensitivity", "setting": "[4]", "value": 0.01, "unit": "µg/mL"}, {"measurement": "IC50", "setting": "[9]", "value": 3.27, "unit": "mg/L"}, {"measurement": "IC50", "setting": "[10]", "value": 27.6, "unit": "mg/L"}, {"measurement": "IC50", "setting": "[11]", "value": 24, "unit": "mg/L"}, {"measurement": "IC50", "setting": "[12]", "value": 44.8, "unit": "mg/L"}, {"measurement": "IC50", "setting": "[13]", "value": 3.27, "unit": "mg/L"}, {"measurement": "IC50", "setting": "[14]", "value": 27.6, "unit": "mg/L"}, {"measurement": "IC50", "setting": "[15]", "value": 24, "unit": "mg/L"}, {"measurement": "IC50", "setting": "[16]", "value": 44.8, "unit": "mg/L"}, {"measurement": "IC50", "setting": "[17]", "value": 6.48, "unit": "mg/L"}, {"measurement": "IC50", "setting": "[18]", "value": 1.51, "unit": "mg/L"}, {"measurement": "IC50", "setting": "[31]", "value": 20.6, "unit": "mg/L"}, {"measurement": "IC50", "setting": "[32]", "value": 16.5, "unit": "mg/L"}, {"measurement": "IC50", "setting": "[33]", "value": 33.2, "unit": "mg/L"}, {"measurement": "IC50", "setting": "[19]", "value": 9.01, "unit": "mg/L"}, {"measurement": "percent blocking", "setting": "[20]", "value": 90.2, "unit": "%"}, {"measurement": "percent blocking", "setting": "[21]", "value": 90.2, "unit": "%"}, {"measurement": "percent blocking", "setting": "[22]", "value": 8.7, "unit": "%"}, {"measurement": "percent blocking", "setting": "[23]", "value": 72.5, "unit": "%"}, {"measurement": "percent blocking", "setting": "[24]", "value": 69.3, "unit": "%"}, {"measurement": "percent blocking", "setting": "[25]", "value": 21.8, "unit": "%"}, {"measurement": "percent blocking", "setting": "[26]", "value": 33.3, "unit": "%"}, {"measurement": "percent blocking", "setting": "[27]", "value": 78.5, "unit": "%"}]}]}
